Measured values as given in patent US20120316071A1 (published 2012).

Key:
[1] = molecular target: T1, rHuman IGF-1 sR, (IGF-1 sR), CF (R&D Systems Cat#391-GR) (human, UniProt P08069 31-932); experiment: ECL multispot (MSD), antigen spotted, 10 nM Fab; blank spot of this row 204
T1 construct: Bought recombinant soluble receptor; also called insulin-like growth factor-1 soluble receptor

[2] = molecular target: T2, rHuman P-Cadherin/Fc Chimera, CF (R&D Systems Cat#861-PC) (human, UniProt P22223 108-654); experiment: as above
T2 construct: Bought recombinant protein; Fc part of the bought chimera not given

[3] = molecular target: T3, rHuman Erythropoietin R/Fc Chimera, CF (R&D Systems Cat#963-ER) (human, UniProt P19235 25-250); experiment: as above
T3 construct: Bought recombinant protein; also called EPO R; EPO R/Fc; Fc part of the bought chimera not given
T3 sequence (looked up): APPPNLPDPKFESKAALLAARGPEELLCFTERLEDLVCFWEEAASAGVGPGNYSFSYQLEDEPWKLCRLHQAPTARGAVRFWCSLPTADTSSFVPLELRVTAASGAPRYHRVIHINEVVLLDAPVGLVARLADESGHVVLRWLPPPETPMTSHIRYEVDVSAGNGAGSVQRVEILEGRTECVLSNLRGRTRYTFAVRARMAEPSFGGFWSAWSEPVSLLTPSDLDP

[4] = molecular target: T4, rHuman ErbB2/Fc Chimera, CF (R&D Systems Cat#1129-ER) (human, UniProt P04626 23-652); experiment: as above
T4 construct: Bought recombinant protein; also called human epidermal growth factor 2 receptor; Fc part of the bought chimera not given

[5] = molecular target: T5, rHuman EGF R/Fc Chimera, CF (R&D Systems Cat#344-ER) (human, UniProt P00533 25-645); experiment: as above
T5 construct: Bought recombinant protein; also called epidermal growth factor receptor; Fc part of the bought chimera not given

[6] = molecular target: T6, rHuman HGF R/c-MET/Fc Chimera, CF (R&D Systems Cat#358-MT/CF) (human, UniProt P08581 25-932); experiment: as above
T6 construct: Bought recombinant protein; also called HGF R/Fc; hepatocyte growth factor receptor; Fc part of the bought chimera not given
T6 sequence (P08581 25-932, change not shown): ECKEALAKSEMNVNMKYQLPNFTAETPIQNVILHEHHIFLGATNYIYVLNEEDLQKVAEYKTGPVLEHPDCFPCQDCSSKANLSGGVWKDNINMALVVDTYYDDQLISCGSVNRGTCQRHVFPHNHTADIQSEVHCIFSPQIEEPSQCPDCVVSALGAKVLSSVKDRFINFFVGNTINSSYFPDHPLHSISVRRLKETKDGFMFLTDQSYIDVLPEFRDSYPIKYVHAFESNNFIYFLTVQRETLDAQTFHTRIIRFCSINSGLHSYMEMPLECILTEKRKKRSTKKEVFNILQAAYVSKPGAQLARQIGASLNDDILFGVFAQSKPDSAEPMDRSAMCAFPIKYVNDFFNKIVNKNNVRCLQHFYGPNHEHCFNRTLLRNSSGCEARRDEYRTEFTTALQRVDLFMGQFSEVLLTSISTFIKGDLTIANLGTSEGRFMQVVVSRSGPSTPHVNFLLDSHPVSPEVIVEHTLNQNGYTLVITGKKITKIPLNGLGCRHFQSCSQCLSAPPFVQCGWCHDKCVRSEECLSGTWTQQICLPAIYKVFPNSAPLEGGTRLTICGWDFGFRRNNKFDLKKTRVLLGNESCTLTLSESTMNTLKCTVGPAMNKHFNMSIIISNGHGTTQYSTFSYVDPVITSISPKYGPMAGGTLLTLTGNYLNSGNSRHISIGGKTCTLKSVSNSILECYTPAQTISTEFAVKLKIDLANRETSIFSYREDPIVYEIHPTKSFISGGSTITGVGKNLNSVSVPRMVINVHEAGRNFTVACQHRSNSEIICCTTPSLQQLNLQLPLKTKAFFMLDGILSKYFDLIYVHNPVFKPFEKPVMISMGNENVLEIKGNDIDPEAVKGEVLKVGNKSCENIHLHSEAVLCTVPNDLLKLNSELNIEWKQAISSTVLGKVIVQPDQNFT

[7] = molecular target: T7, rHuman Notch-1/Fc Chimera, CF (R&D Systems Cat#3647-TK) (human, UniProt P46531 19-526); experiment: as above
T7 construct: Bought recombinant protein; Fc part of the bought chimera not given

[8] = molecular target: T8, rHuman CD44/Fc Chimera, CF (R&D Systems Cat#3660-CD) (human, UniProt P16070 21-220); experiment: as above
T8 construct: Bought recombinant protein; Fc part of the bought chimera not given

[9] = molecular target: T1, rHuman IGF-1 sR, (IGF-1 sR), CF (R&D …); experiment: ECL multispot (MSD), antigen spotted, 10 nM Fab; blank spot of this row 239
[10] = molecular target: T2, rHuman P-Cadherin/Fc Chimera, CF (R&D …); experiment: as above
[11] = molecular target: T3, rHuman Erythropoietin R/Fc Chimera, CF …; experiment: as above
[12] = molecular target: T4, rHuman ErbB2/Fc Chimera, CF (R&D …); experiment: as above
[13] = molecular target: T5, rHuman EGF R/Fc Chimera, CF (R&D …); experiment: as above
[14] = molecular target: T6, rHuman HGF R/c-MET/Fc Chimera, CF (R&D …); experiment: as above
[15] = molecular target: T7, rHuman Notch-1/Fc Chimera, CF (R&D …); experiment: as above
[16] = molecular target: T8, rHuman CD44/Fc Chimera, CF (R&D Systems …); experiment: as above
[17] = molecular target: T1, rHuman IGF-1 sR, (IGF-1 sR), CF (R&D …); experiment: ECL multispot (MSD), antigen spotted, 10 nM Fab; blank spot of this row 271
[18] = molecular target: T2, rHuman P-Cadherin/Fc Chimera, CF (R&D …); experiment: as above
[19] = molecular target: T3, rHuman Erythropoietin R/Fc Chimera, CF …; experiment: as above
[20] = molecular target: T4, rHuman ErbB2/Fc Chimera, CF (R&D …); experiment: as above
[21] = molecular target: T5, rHuman EGF R/Fc Chimera, CF (R&D …); experiment: as above
[22] = molecular target: T6, rHuman HGF R/c-MET/Fc Chimera, CF (R&D …); experiment: as above
[23] = molecular target: T7, rHuman Notch-1/Fc Chimera, CF (R&D …); experiment: as above
[24] = molecular target: T8, rHuman CD44/Fc Chimera, CF (R&D Systems …); experiment: as above

ECL signal [1]: 197
ECL signal [2]: 208
ECL signal [3]: 329
ECL signal [4]: 157
ECL signal [5]: 237
ECL signal [6]: 272
ECL signal [7]: 334
ECL signal [8]: 96
ECL signal [9]: 174
ECL signal [10]: 256
ECL signal [11]: 285
ECL signal [12]: 340
ECL signal [13]: 216
ECL signal [14]: 171
ECL signal [15]: 130
ECL signal [16]: 236
ECL signal [17]: 241
ECL signal [18]: 297
ECL signal [19]: 304
ECL signal [20]: 330
ECL signal [21]: 272
ECL signal [22]: 306
ECL signal [23]: 257
ECL signal [24]: 189
B1: Fab VH1-46_IGHD6-6*01_IGHJ1*01 S102A/S103P/S104F (APF) & L6_IGKJ1*01 (Fab, V domains shown)
VH: QVQLVQSGAEVKKPGASVKVSCKASGYTFTSYYMHWVRQAPGQGLEWMGIINPSGGSTSYAQKFQGRVTMTRDTSTSTVYMELSSLRSEDTAVYYCAREEYAPFSAEYFQHWGQGTLVTVSS
VL: not shown
notes: Tested as Fab made in E. coli; The heavy chain was cloned in Plasmid A (CH1 constant region, His6 and Flag tags); The kappa light chain was cloned in Plasmid C (kappa CL); also called APF triple mutant; H:APF & L:wt
